Source: paper PMC4889959 (Nucleic Acids Research, 2016)

B1: SLX4BTB wild type, yeast two-hybrid fusion [human] / SLX4BTB wild type, yeast two-hybrid fusion [human] (parent)
chain 1: QDKHPDRGGRTLLSLGLLVADFGAMVNNPHLSDVQFQTDSGEVLYAHKFVLYARCPLLIQYVNNEGFSAVEDGVLTQRVLLGDVSTEAARTFLHYLYTADTGLPPGLSSELSSLAHRFGVSELVHLCEQVPIATDS
chain 2: B1 chain 1

Variants of: B1
Assay: yeast two-hybrid β-galactosidase assay
Settings: with SLX4BTB wild type, ONPG as substrate, SLX4BTB-F681R-F708R-AD + SLX4BTB-BD, parent: 710, read off a plot

Variant | response (OD420 reading)
chain 1 QDKHPDRGGRTLLSLGLLVADRGAMVNNPHLSDVQFQTDSGEVLYAHKRVLYARCPLLIQYVNNEGFSAVEDGVLTQRVLLGDVSTEAARTFLHYLYTADTGLPPGLSSELSSLAHRFGVSELVHLCEQVPIATDS | 5

Same assay, conditions: with SLX4BTB wild type, ONPG as substrate, SLX4BTB-F708R-AD + SLX4BTB-BD, parent: 710, read off a plot

Variant | response (OD420 reading)
chain 1 QDKHPDRGGRTLLSLGLLVADFGAMVNNPHLSDVQFQTDSGEVLYAHKRVLYARCPLLIQYVNNEGFSAVEDGVLTQRVLLGDVSTEAARTFLHYLYTADTGLPPGLSSELSSLAHRFGVSELVHLCEQVPIATDS | 5.5
